The values that follow come from the Immune Epitope Database (IEDB).

Holding throughout (assay): IEDB peptide-MHC binding, purified MHC/competitive/radioactivity; filed as Kd, often an IC50 or EC50 that approximates it; ≥ and ≤ were set here for values at or beyond the usual limits of such assays
Assay [1] concerns the target HLA-A*03:01.
The target in assay [2] is HLA-A*11:01.
Assay [3] addresses HLA-A*31:01.
Assay [4] deals with HLA-A*33:01.
Assay [5] addresses HLA-A*68:01.
The mark [6] stands for this setting: source organism: SARS coronavirus Tor2.
The mark [7] stands for this setting: source organism: Mammarenavirus whitewaterense.
Where [8] appears, read: source organism: Vaccinia virus WR.
[9] abbreviates: source organism: Mammarenavirus guanaritoense.

A value given as a limit tells only on which side of the number the result lay.

Turning to TVKPGNFNK, the Kd (as a rule, the equilibrium constant for the complex coming apart) turned out to be 81.5 nM in assay [1] (setting [6]); 33 nM in assay [2] (setting [6]); 41.6 nM in assay [3] (setting [6]); 1000 nM in assay [4] (setting [6]); 122 nM in assay [5] (setting [6]).

For the sequence SCSYKIGHH, the Kd in assay [1] (setting [7]) was at least 78000 nM; in assay [2] (setting [7]), at least 64800 nM; in assay [3] (setting [7]) it was at least 45800 nM; in assay [4] (setting [7]), at least 77700 nM; in assay [5] (setting [7]), at least 77600 nM.

Turning to NISIIVLFQR, the Kd worked out at 907 nM in assay [1] (setting [8]); 670 nM in assay [2] (setting [8]); 33.6 nM in assay [3] (setting [8]); 1400 nM in assay [4] (setting [8]); 3.84 nM in assay [5] (setting [8]).

LLGDSDSVAK: the Kd was 203 nM in assay [1] (setting [8]); 584 nM in assay [2] (setting [8]); 3580 nM in assay [3] (setting [8]); at least 70000 nM in assay [4] (setting [8]); 10900 nM in assay [5] (setting [8]).

Consider TQSVLCVKK, for which the Kd in assay [1] (setting [8]) was 1040 nM; in assay [2] (setting [8]), 6.64 nM; in assay [3] (setting [8]), 1010 nM; in assay [4] (setting [8]) it was at least 67900 nM; in assay [5] (setting [8]) it was 228 nM.

Regarding IVTSLAIKNY, the dissociation constant (Kd) in assay [1] (setting [8]) worked out at 1110 nM; in assay [2] (setting [8]) it was 51.7 nM; in assay [3] (setting [8]), 8820 nM; in assay [4] (setting [8]), 5680 nM; in assay [5] (setting [8]) it was 1410 nM.

Take MMNRDKIPIY: the dissociation constant (Kd) in assay [1] (setting [8]) is 1030 nM; in assay [2] (setting [8]) it was 3800 nM; in assay [3] (setting [8]), 10400 nM; in assay [4] (setting [8]) it was at least 70000 nM; in assay [5] (setting [8]), at least 70200 nM.

Consider VFCNDHKGNR, for which the Kd is at least 53200 nM in assay [1] (setting [8]); at least 69800 nM in assay [2] (setting [8]); 428 nM in assay [3] (setting [8]); 1880 nM in assay [4] (setting [8]); 4090 nM in assay [5] (setting [8]).

GSFCTQLNR: the Kd is 1040 nM in assay [1] (setting [6]); 76.1 nM in assay [2] (setting [6]); 51.1 nM in assay [3] (setting [6]); at least 33100 nM in assay [4] (setting [6]); 229 nM in assay [5] (setting [6]).

Regarding FSNTIQSYK, the Kd worked out at 25.5 nM in assay [1] (setting [8]); 11 nM in assay [2] (setting [8]); 77.7 nM in assay [3] (setting [8]); 2000 nM in assay [4] (setting [8]); 5.84 nM in assay [5] (setting [8]).

Take NFFTELENK: the Kd in assay [1] (setting [8]) was at least 69500 nM; in assay [2] (setting [8]), 1690 nM; in assay [3] (setting [8]), 7320 nM; in assay [4] (setting [8]), 11300 nM; in assay [5] (setting [8]), 1280 nM.

On to MMFINSTCY, for which the Kd in assay [1] (setting [8]) worked out at 21.2 nM; in assay [2] (setting [8]) it was 159 nM; in assay [3] (setting [8]) it was 129 nM; in assay [4] (setting [8]) it was 3930 nM; in assay [5] (setting [8]), 145 nM.

As for KLQARNIQK, the Kd in assay [1] (setting [8]) came out at 8.03 nM; in assay [2] (setting [8]) it was 17.8 nM; in assay [3] (setting [8]), 13.5 nM; in assay [4] (setting [8]), 927 nM; in assay [5] (setting [8]), 169 nM.

For SAGFSLWIYK, the Kd in assay [1] (setting [6]) came out at 75.3 nM; in assay [2] (setting [6]) it was 0.0935 nM; in assay [3] (setting [6]) it was 52.1 nM; in assay [4] (setting [6]), 3430 nM; in assay [5] (setting [6]), 31.1 nM.

As for ELVTRKCPQK, the Kd in assay [1] (setting [8]) was 7420 nM; in assay [2] (setting [8]), 513 nM; in assay [3] (setting [8]), at least 70000 nM; in assay [4] (setting [8]) it was at least 32000 nM; in assay [5] (setting [8]), 1400 nM.

Take FLKSGAVVK: the dissociation constant Kd was 13.5 nM in assay [1] (setting [8]); 347 nM in assay [2] (setting [8]); 4770 nM in assay [3] (setting [8]); 19500 nM in assay [4] (setting [8]); 43.8 nM in assay [5] (setting [8]).

With NYVHCFRKPH, the Kd in assay [1] (setting [9]) was at least 70000 nM; in assay [2] (setting [9]), at least 69700 nM; in assay [3] (setting [9]), 12000 nM; in assay [4] (setting [9]), 1430 nM; in assay [5] (setting [9]) it was at least 70100 nM.

With IIKSDHEFVK, the Kd in assay [1] (setting [8]) is 4270 nM; in assay [2] (setting [8]) it was 443 nM; in assay [3] (setting [8]), 15700 nM; in assay [4] (setting [8]), at least 70000 nM; in assay [5] (setting [8]), 1820 nM.

Consider SMDVLAEKK, for which the dissociation constant Kd is 911 nM in assay [1] (setting [8]); 25.7 nM in assay [2] (setting [8]); at least 22600 nM in assay [3] (setting [8]); at least 77700 nM in assay [4] (setting [8]); 1270 nM in assay [5] (setting [8]).

As for NLDPDNKMSY, the Kd in assay [1] (setting [8]) is 950 nM; in assay [2] (setting [8]), 582 nM; in assay [3] (setting [8]) it was at least 41300 nM; in assay [4] (setting [8]), at least 65800 nM; in assay [5] (setting [8]) it was 1460 nM.

For the sequence MSMGDIITY, the dissociation constant Kd in assay [1] (setting [8]) was found to be 134 nM; in assay [2] (setting [8]), 5.67 nM; in assay [3] (setting [8]), 8570 nM; in assay [4] (setting [8]) it was 13300 nM; in assay [5] (setting [8]) it was 1.85 nM.

As for EVFGSTGDY, the Kd in assay [1] (setting [8]) was 3140 nM; in assay [2] (setting [8]), 13.1 nM; in assay [3] (setting [8]) it was at least 77900 nM; in assay [4] (setting [8]), at least 77700 nM; in assay [5] (setting [8]) it was 14.2 nM.

As to KVSAQNISFK, the Kd was determined as 5070 nM in assay [1] (setting [8]); 131 nM in assay [2] (setting [8]); 433 nM in assay [3] (setting [8]); 3320 nM in assay [4] (setting [8]); 3380 nM in assay [5] (setting [8]).

Consider SAEDNYLAK, for which the Kd was at least 26300 nM in assay [1] (setting [8]); 56.1 nM in assay [2] (setting [8]); at least 53500 nM in assay [3] (setting [8]); at least 77700 nM in assay [4] (setting [8]); 11400 nM in assay [5] (setting [8]).

With IFVDTMSIY, the Kd in assay [1] (setting [8]) was 18300 nM; in assay [2] (setting [8]), 921 nM; in assay [3] (setting [8]), 6760 nM; in assay [4] (setting [8]) it was at least 29100 nM; in assay [5] (setting [8]), 882 nM.

Turning to RVVVQIDPEY, the Kd in assay [1] (setting [8]) was 14200 nM; in assay [2] (setting [8]), at least 23400 nM; in assay [3] (setting [8]), at least 70000 nM; in assay [4] (setting [8]) it was at least 70000 nM; in assay [5] (setting [8]) it was 1190 nM.

In the case of TIKYSNDNR, the Kd came to 15500 nM in assay [1] (setting [8]); 228 nM in assay [2] (setting [8]); 19.6 nM in assay [3] (setting [8]); 116 nM in assay [4] (setting [8]); 3 nM in assay [5] (setting [8]).

PVSMTYLYNK: the Kd was 1190 nM in assay [1] (setting [8]); 107 nM in assay [2] (setting [8]); 6150 nM in assay [3] (setting [8]); at least 70000 nM in assay [4] (setting [8]); 12900 nM in assay [5] (setting [8]).

As for RFVKFNDYR, the Kd in assay [1] (setting [8]) is 19800 nM; in assay [2] (setting [8]), 14800 nM; in assay [3] (setting [8]) it was at most 1 nM; in assay [4] (setting [8]) it was 237 nM; in assay [5] (setting [8]), 38.2 nM.

For the sequence YMSALNHTK, the dissociation constant (Kd) in assay [1] (setting [6]) is 108 nM; in assay [2] (setting [6]), 48.4 nM; in assay [3] (setting [6]), 642 nM; in assay [4] (setting [6]), 1120 nM; in assay [5] (setting [6]) it was 3.43 nM.

With LLFADINGK, the Kd is 30.8 nM in assay [1] (setting [6]); 8.81 nM in assay [2] (setting [6]); 2560 nM in assay [3] (setting [6]); at least 50900 nM in assay [4] (setting [6]); 120 nM in assay [5] (setting [6]).

Turning to DSLLITNTK, the Kd in assay [1] (setting [8]) came to 2710 nM; in assay [2] (setting [8]), 661 nM; in assay [3] (setting [8]), 18600 nM; in assay [4] (setting [8]), 5.16 nM; in assay [5] (setting [8]), 37.1 nM.

As for TIEILRNYLR, the Kd was determined as 2350 nM in assay [1] (setting [8]); 48.5 nM in assay [2] (setting [8]); 21.1 nM in assay [3] (setting [8]); 27.7 nM in assay [4] (setting [8]); 1.62 nM in assay [5] (setting [8]).

Consider VTGFMEEEIK, for which the Kd was 13300 nM in assay [1] (setting [8]); 7.06 nM in assay [2] (setting [8]); 10700 nM in assay [3] (setting [8]); at least 33900 nM in assay [4] (setting [8]); 1220 nM in assay [5] (setting [8]).

On to SLVKKNKKR, for which the Kd is at least 78000 nM in assay [1] (setting [8]); at least 77900 nM in assay [2] (setting [8]); at least 77900 nM in assay [3] (setting [8]); at least 77700 nM in assay [4] (setting [8]); at least 77700 nM in assay [5] (setting [8]).

On to DVKASMLEKY, for which the Kd in assay [1] (setting [8]) is at least 24700 nM; in assay [2] (setting [8]) it was 4940 nM; in assay [3] (setting [8]), at least 36000 nM; in assay [4] (setting [8]) it was 16700 nM; in assay [5] (setting [8]) it was 558 nM.

In the case of WLHECTDESR, the Kd is at least 70100 nM in assay [1] (setting [8]); at least 69800 nM in assay [2] (setting [8]); 6230 nM in assay [3] (setting [8]); 254 nM in assay [4] (setting [8]); 273 nM in assay [5] (setting [8]).
